In this data set the test system is MS2 coat protein. Put plainly: apparent KD of MS2 coat protein; designed switch direction (-1 OFF switch, 1 ON switch): -1; higher = weaker reporter binding. The method in brief: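 On Illumina chips, designed RNA switches with common flanks were made by stalled E. coli RNA polymerase. Titrations with SNAP-549-labelled MS2 coat protein, doubling from 0.7 or 1.5 nM to 3 µM, were done with no input, with 200 uM small-molecule ligand, or with an oligonucleotide input. Apparent KD is the median per design over clusters, from curve fits of normalised cluster fluorescence.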

[1] abbreviates: Eterna round: R95, input ligand: FMN 200 uM.
Setting [2] is: Eterna round: R95, input ligand: microRNA oligo, concentration not stated.
The mark [3] stands for this setting: Eterna round: R95, input ligand: none.
Setting [4] is: input ligand: microRNA oligo, concentration not stated.

Results on 30 sequences are retold here after the supplement of paper PMC9170038.

On to “GCUGGACAAGGAUAUACAUGAGGAUCACCCAUGUGAUCAGCAGUCCUCGGACUGCAAUGUAGAAGGUGUCCAGC [E3/1-C2] (Eterna round: R97, puzzle: Exclusion 3)”, for which the “apparent KD of MS2 coat protein” value by setting is: (input ligand: FMN 200 uM) 38.9 nM; (input ligand: none) 198 nM.
“GCUGGAGCAGGAUAUUCAAUAUCACACAUGAGGAUCACCCAUGUCCAGCGAAAGCUGGAGGGAGAAGGGCUCUAGC [Mat - Exclusion 5 - Eli mod - D98] (puzzle: Exclusion 5)”: the “apparent KD of MS2 coat protein” value by setting is: under setting [1], 17.6 nM; under setting [2], 60.4 nM; under setting [3], 76 nM.
In the case of “GCUGGUCAAGGAUAUGCAUUCGUGCUUCGGCACGUAAGGUCACAUGAGGAUCACCCAUGUAGAAGGUGACCAGC [E2/6-C1] (Eterna round: R97, puzzle: Exclusion 2)”, the “apparent KD of MS2 coat protein” value came to 31.6 nM (input ligand: FMN 200 uM) and 20.9 nM (input ligand: none).
Regarding “GCUGGUCGAGGAUAUGCAUAUACUGGAUACAGUGGAAGGUCACAUGAGGAUCACCCAUGUAGAAGGCGACUAGC [EX2 #37] (Eterna round: R97, puzzle: Exclusion 2)”, the “apparent KD of MS2 coat protein” value is 558 nM (input ligand: FMN 200 uM) and 463 nM (input ligand: none).
For the sequence “GCUUCGGCAGGAUAUACAUGAGGAUCACCCAUGUGCUUCGGCUUGAUCAAGUUGAAGUGUAGAAGGGUUGAAGU [-25.5, -22.5 kcal, 26% A, 3 bis, 3 bis] (Eterna round: R97, puzzle: Exclusion 3)”, the “apparent KD of MS2 coat protein” value (input ligand: FMN 200 uM) turned out to be 36.8 nM and the “apparent KD of MS2 coat protein” value (input ligand: none) stood at 78.7 nM.
On the same counts, the results for “GCUUGCUUUUUGGUUUUCAACAUGAGGAUCACCCAUGUUCGUCUUGUGCUCGGGCUUGGGCGGUGUCCGGGUUUGGG [A 9%, less GC] (Eterna round: R97, puzzle: Sensor, turn-off variant 1)” are 55.8 nM and 60.6 nM.
In the case of “GCUUGGCGAGGAUAUACAUGAGGAUCACCCAUGUGAGAAGAAUAAGUGAGGAAGAAAAGUAGAAGGCGCUGAGG [Mat - Exclusion 3 - Mod of Salish D62] (puzzle: Exclusion 3)”, the “apparent KD of MS2 coat protein” value is 56.1 nM under setting [1], 30.4 nM under setting [2] and 37.6 nM under setting [3].
As to “GCUUGUAGAGGAUAUACAAGGGCCCACGCGGCGAGAGCCGCACAUGAGGAUCACCCAUGUAGAAGGCUACUAUA [JL-ex2-4.23 ViennaUCT mod] (Eterna round: R97, puzzle: Exclusion 2)”, the “apparent KD of MS2 coat protein” value (input ligand: FMN 200 uM) worked out at 125 nM and the “apparent KD of MS2 coat protein” value (input ligand: none) is 363 nM.
Take “GCUUGUGGGCAAGGAUAUCCUACGUUGUUCUGGUUCGUGUCUGUCACAUGAGGAUCACCCAUGUGGGAGAAGGUGCCUUUGGUG [Design 62] (Eterna round: R96, puzzle: Exclusion NG 2)”: the “apparent KD of MS2 coat protein” value is 23.2 nM (input ligand: FMN 200 uM), 9.2 nM under setting [4] and 15.6 nM (input ligand: none).
As for “GGAAAACAUGAGGAUCACCCAUGUAAGGAUAUGCAAAAGGAUAUAGAAGGAAAAUAAAGCAGAAGGUACAAAGG [salish99-ex1_r3_098] (puzzle: Exclusion 1)”, the “apparent KD of MS2 coat protein” value reads like this: under setting [1], 126 nM; under setting [2], 23.7 nM; under setting [3], 127 nM.
Consider “GGAAAGCAAGGAUAUACAAGGAGAAGGAGGAAAGUAAAAGGACAUGAGGAUCACCCAUGUAGAAGGUGCGAGAG [JR_Exclu2_Sub039] (puzzle: Exclusion 2)”, for which the “apparent KD of MS2 coat protein” value under setting [1] was determined as 31.9 nM, the “apparent KD of MS2 coat protein” value under setting [2] worked out at 29 nM and the “apparent KD of MS2 coat protein” value under setting [3] stood at 43.5 nM.
Consider “GGAAAGUGAGGAUAUGGUAAUUUAAUUAUUAAUUAAUUAAUCCAGAAGGCACAUGAGGAUCACCCAUGUAAAUG [Mat - Exclusion 4 - D91] (puzzle: Exclusion 4)”, for which the “apparent KD of MS2 coat protein” value under setting [2] came out at 30 nM.
Turning to “GGAAGACAUGAGGAUCACCCAUGUAAGGAUAUCGAAGGUAUGAGAGGAAAGAGGUUAACGAGAAGGUACAGGUG [JR_Exclu1_Sub099] (puzzle: Exclusion 1)”, the “apparent KD of MS2 coat protein” value is, setting by setting: under setting [1], 107 nM; under setting [2], 82 nM; under setting [3], 102 nM.
As to “GGAAGAGAGAUAGGAUAUUAAAGGAAGAUGGUGAGAGAGACAUGAGGAUCACCCAUGUAAAGGAAUAAGAAGGGUCAGAAGGAA [EXNG2 V2 g] (Eterna round: R96, puzzle: Exclusion NG 2)”, the “apparent KD of MS2 coat protein” value was determined as 137 nM (input ligand: FMN 200 uM), 104 nM under setting [4] and 184 nM (input ligand: none).
“GGAAGGAGUGUCAGGAUAUCCGGAGGGAAACCUCCGGAGAAGGGACAUGAGGAUCACCCAUGUAGAGGAAGGAG [AK-MS2ROC-r4-Bmoexclusion4-9] (Eterna round: R97, puzzle: Brourd's mod of Exclusion 4)”: the “apparent KD of MS2 coat protein” value is, setting by setting: (input ligand: FMN 200 uM) 561 nM; (input ligand: none) 441 nM.
On the same counts, the results for “GGAAUGUAAGGAUAUCCGAAAGGAAGGAGAGGGAGAGGGAAGGAGAAGGUACAUGAGGAUCACCCAUGUAAGGG [AK-MS2ROC-r4-exclusion4-9] (Eterna round: R97, puzzle: Exclusion 4)” are 88.5 nM and 69.2 nM.
For the sequence “GGACCUGGAGGAUAUAGAGCACUGAACAUGAGGAUCACCCAUGUGACCGGUGUAGUGCACCUAGAAGGCCGCGGCA [Eternabot (L1) Solution 40] (Eterna round: R97, puzzle: Exclusion 5)”, the “apparent KD of MS2 coat protein” value stood at 129 nM (input ligand: FMN 200 uM) and 65.4 nM (input ligand: none).
In the case of “GGAGAGGGAGGAUAUGCGCCAACAAACAUGAGGAUCACCCAUGUGGUGCUCCAAGAAAGGGUAGAAGGCCCUCUCC [Default title] (puzzle: Exclusion 5)”, the “apparent KD of MS2 coat protein” value under setting [1] is 619 nM, the “apparent KD of MS2 coat protein” value under setting [2] is 275 nM and the “apparent KD of MS2 coat protein” value under setting [3] was 295 nM.
With “GGAGCUGGAGGAUAUACAAGAUCGAAAGAUCAAAGAUCCGUACAUGAGGAUCACCCAUGUAGAAGGCCAGCUCC (Eterna round: R97, puzzle: Exclusion 2)”, the “apparent KD of MS2 coat protein” value is, setting by setting: (input ligand: FMN 200 uM) 763 nM; (input ligand: none) 40.4 nM.
Take “GGAGGACGAGCAGGAUAUUUUCACAUGAGGAUCACCCAUGUGUACUCAGGGUAAUCCUCCGCCGAAAAGAAGGGUUCGGAAGAA [JL ViennaUCT Socedi mod 1] (Eterna round: R96, puzzle: Exclusion NG 2)”: the “apparent KD of MS2 coat protein” value (input ligand: FMN 200 uM) came to 46.7 nM, the “apparent KD of MS2 coat protein” value under setting [4] stood at 33.2 nM and the “apparent KD of MS2 coat protein” value (input ligand: none) amounted to 50.8 nM.
For “GGAGUGUAAGGAUAUAAGACAAGGGCUAUCGGAGCCCAAAUUUAGAAGGUACAUGAGGAUCACCCAUGUGAUGA [Eternabot (L1) Solution 5] (Eterna round: R97, puzzle: Exclusion 4)”, the “apparent KD of MS2 coat protein” value runs as follows: (input ligand: FMN 200 uM) 124 nM; (input ligand: none) 27.2 nM.
As to “GGAUAAAACUGAGGAUAUACGUAUCGCUAGCGAGUAGAAGGCAGACAUGAGGAUCACCCAUGUGAGUUCUCGAUAAGAAACACG [Prohibition 60 - Jieux - Exclusion NG 1] (Eterna round: R96, puzzle: Exclusion NG 1)”, the “apparent KD of MS2 coat protein” value by setting is: (input ligand: FMN 200 uM) 163 nM; under setting [4], 35.5 nM; (input ligand: none) 53.3 nM.
Turning to “GGAUAAAAGACAGGAUAUACGCACCACUAACGAGUAGAAGGGUCACAUGAGGAUCACCCAUGUGAGUUCUCAAUAAGAAACACG [Prohibition 67 - Jieux - Exclusion NG 1] (Eterna round: R96, puzzle: Exclusion NG 1)”, the “apparent KD of MS2 coat protein” value turned out to be 14.2 nM (input ligand: FMN 200 uM), 16.9 nM under setting [4] and 17.3 nM (input ligand: none).
On the same counts, the results for “GGAUAAAAUCGAGGAUAUACGCACCACUAACGAGUAGAAGGCGAACAUGAGGAUCACCCAUGUGAGUUCUCAAUAAGAAACACG [Prohibition 68 - Jieux - Exclusion NG 1] (Eterna round: R96, puzzle: Exclusion NG 1)” are 40.5 nM, 23.9 nM and 35.1 nM.
With “GGAUCACAUGUGAGGAUAUGCAGGUCCUUGGAUCUGCAGAAGGCACAUGAGGAUCACCCAUGUGAUCAAGAUCC [Mat - Exclusion 4 - Eli Mod - D49] (Eterna round: R97, puzzle: Brourd's mod of Exclusion 4)”, the “apparent KD of MS2 coat protein” value was 47.4 nM (input ligand: FMN 200 uM) and 61.2 nM (input ligand: none).
Consider “GGAUCGAGUGUGAGGAUAUGCUGGUCCUAAGAUCAGCAGAAGGCACAUGAGGAUCACCCAUGUGAAAACGGUCC [Mat - Exclusion 4 - JL Mod - D71] (Eterna round: R96, puzzle: Brourd's mod of Exclusion 4)”, for which the “apparent KD of MS2 coat protein” value is, setting by setting: (input ligand: FMN 200 uM) 183 nM; under setting [4], 24.2 nM; (input ligand: none) 29.3 nM.
Regarding “GGAUCGAGUGUGAGGAUAUGCUGGUCCUAAGAUCAGCAGAAGGCACAUGAGGAUCACCCAUGUGAAAACGGUCC [Mat - Exclusion 4 - JL Mod - D71] (puzzle: Brourd's mod of Exclusion 4)”, the “apparent KD of MS2 coat protein” value under setting [2] is 23.5 nM.
As for “GGAUUCCAGUGAGGAUAUCCAAAUAAAAGCCAUGGAGAAGGCACAUGAGGAUCACCCAUGUAGGGCAAUAGCAGCGACCGCUGC [Usxeer] (Eterna round: R96, puzzle: Exclusion NG 1)”, the “apparent KD of MS2 coat protein” value worked out at 60.8 nM (input ligand: FMN 200 uM), 20.7 nM under setting [4] and 35.1 nM (input ligand: none).
Take “GGAUUUACUGAGGAUAUUGCAUCACCCGACUGAUAAGAAGGCAGAACAUGAGGAUCACCCAUGUGGGUAGUCAA [Bingo-Bango-3] (Eterna round: R97, puzzle: Exclusion 6)”: the “apparent KD of MS2 coat protein” value amounted to 29.6 nM (input ligand: FMN 200 uM) and 19.5 nM (input ligand: none).
On the same counts, the results for “GGAUUUACUGAGGAUAUUGCAUCACCCGAUUGAUAAGAAGGCAGAACAUGAGGAUCACCCAUGUGGGUAGUCAA [Bingo-Bango-2] (Eterna round: R97, puzzle: Exclusion 6)” are 80.2 nM and 39.3 nM.
